Experimental data from PMC6021402, “Dissecting ribosomal particles throughout the kingdoms of life using advanced hybrid mass spectrometry methods” (Nature Communications, 2018).

Tests used:
[1] = target: chloroplastic ribosomal protein L10 from S. oleracea (S. oleracea (spinach)); assay: native MS; chloroplastic 70S ribosomes introduced into a QE-UHMR mass spectrometer; intact stalk complexes released by in-source trapping activation and their mass measured; quadrupole isolation and HCD fragmentation ejected a single L12 (pseudo-MS3)
[2] = target: the molecule itself; assay: as above

stoichiometry N [1]: 6 L12 per L10
B1: chloroplastic ribosomal protein L12 from S. oleracea (natural protein, S. oleracea (spinach), UniProt P02398 57-189, looked up)
chain: AVEAPEKIEQLGTQLSGLTLEEARVLVDWLQDKLGVSAASFAPAAAVAAPGAPADAAPAVEEKTEFDVSIDEVPSNARISVIKAVRALTSLGLKEAKELIEGLPKKLKEGVSKDDAEDAKKQLEDAGAKVSIV
notes: 50S ribosomal protein L12, chloroplastic, Spinacia oleracea; Six copies in each stalk complex; also called L7/L12; source: endogenous, in chloroplastic 70S ribosomes purified from spinach leaves (sucrose cushion, sucrose gradient)
binding result [2]: binds
